Columns and labels:
[1] = molecular target: human OX40 on cells (human) (UniProt P43489); assay: flow cytometry on human PBMCs activated with anti-CD3/CD28 beads, 50 nM antibody
[2] = molecular target: human OX40 on cells (human) (UniProt P43489); assay: cell-based or functional assay

Chain of human OX40 on cells (human) (P43489 29-277): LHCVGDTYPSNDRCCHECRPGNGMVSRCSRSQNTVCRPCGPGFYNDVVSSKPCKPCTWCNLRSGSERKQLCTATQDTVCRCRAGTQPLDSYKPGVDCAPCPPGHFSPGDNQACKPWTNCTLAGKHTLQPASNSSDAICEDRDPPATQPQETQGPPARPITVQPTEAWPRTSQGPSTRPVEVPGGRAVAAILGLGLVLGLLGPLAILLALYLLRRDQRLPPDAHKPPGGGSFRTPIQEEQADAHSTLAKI

| Binding percentage % [1] [%] | MFI (ten thousand) [1] | Luciferase IFM, Jurkat-hOX40-NFκB-2 cells [2] | Substance |
| --- | --- | --- | --- |
| 23 | 7000 |  | IgG1 (antibody) |
|  |  | 59000 | OX40L (ligand) |

Reference: patent US20230139700A1
